Experimental data: publication PMC4427845, “Redesigning Protein Cavities as a Strategy for Increasing Affinity in Protein-Protein Interaction: Interferon-γ Receptor 1 as a Model” (BioMed Research International, 2015)

Assays:
Assay in all cases: SPR; His-tagged receptor variants immobilised on a Ni2+-activated HTG sensor chip (ProteOn); IFNγSC 0.1-9 nM flowed over, 90 s association, 10 min dissociation, 100 μL/min; PBST (PBS pH 7.4, 0.005% Tween 20); doubly referenced (interspots and His-tagged FrpD channel); 1:1 Langmuir with drift model
Conditions in all cases: both partners purified
[1] = target: T1, IFNγR1 G225Y variant (residues 18-245) (human, UniProt P15260 18-245, G225Y)
T1 construct: interferon-γ receptor 1 (IFNγR1), human, extracellular domain, residues 18-245 of UniProt P15260; No primers are printed for this mutation; the methods say one protocol was followed for all proteins of the study; not shown: His tag, C-terminal, kept
T1 sequence (looked up): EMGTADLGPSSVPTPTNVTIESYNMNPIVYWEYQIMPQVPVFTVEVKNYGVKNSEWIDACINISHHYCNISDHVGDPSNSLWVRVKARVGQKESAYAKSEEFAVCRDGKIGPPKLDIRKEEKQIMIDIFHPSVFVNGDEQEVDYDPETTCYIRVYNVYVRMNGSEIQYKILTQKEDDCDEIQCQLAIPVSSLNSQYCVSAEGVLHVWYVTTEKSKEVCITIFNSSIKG

[2] = target: T2, IFNγR1 N96W + V35L variant (residues 18-245) (human, UniProt P15260 18-245, V35L | N96W)
T2 construct: interferon-γ receptor 1 (IFNγR1), human, extracellular domain, residues 18-245 of UniProt P15260; not shown: His tag, C-terminal, kept
T2 sequence (looked up): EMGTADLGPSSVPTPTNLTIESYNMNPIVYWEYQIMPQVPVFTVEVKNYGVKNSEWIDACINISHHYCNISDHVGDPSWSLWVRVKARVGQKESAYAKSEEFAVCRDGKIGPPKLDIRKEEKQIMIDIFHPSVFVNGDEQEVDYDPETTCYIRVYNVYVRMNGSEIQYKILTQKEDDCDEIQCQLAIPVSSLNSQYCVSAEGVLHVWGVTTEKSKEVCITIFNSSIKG

[3] = target: T3, IFNγR1 N96W + G225Y double mutant (residues 18-245) (human, UniProt P15260 18-245, N96W | G225Y)
T3 construct: interferon-γ receptor 1 (IFNγR1), human, extracellular domain, residues 18-245 of UniProt P15260; not shown: His tag, C-terminal, kept
T3 sequence (looked up): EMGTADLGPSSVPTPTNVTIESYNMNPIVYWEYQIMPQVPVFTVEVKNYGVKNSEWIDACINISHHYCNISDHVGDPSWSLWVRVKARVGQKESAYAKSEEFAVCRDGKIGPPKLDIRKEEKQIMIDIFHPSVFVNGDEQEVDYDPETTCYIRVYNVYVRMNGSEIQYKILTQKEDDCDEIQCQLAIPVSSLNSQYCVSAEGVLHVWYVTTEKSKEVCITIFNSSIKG

B1: Recombinant interferon gamma in so-called single chain form (IFNγSC) (ligand)
chain: MQDPYVKEAENLKKYFNAGHSDVADNGTLFLGILKNWKEESDRKIMQSQIVSFYFKLFKNFKDDQSIQKSVETIKEDMNVKFFNSNKKKRDDFEKLTNYSVTDLNVQRKAIDELIQVMAEFSTEEQQEGPYVKEAENLKKYFNAGHSDVADNGTLFLGILKNWKEESDRKIMQSQIVSFYFKLFKNFKDDQSIQKSVETIKEDMNVKFFNSNKKKRDDFEKLTNYSVTDLNVQRKAIHELIQVMAELSPAAKTGKRKRSQMLFRG
[1]
  ratio of Kd values against WT: 0.4
[2]
  fold of affinity against WT: 7 fold
[3]
  ratio of Kd values against WT: 3.1
